Measurements: PMC4175184, “Structure and function of cohesin’s Scc3/SA regulatory subunit” (Febs Letters, 2014)

Target: T1, S. cerevisiae Scc3, full-length protein (S. cerevisiae, UniProt P40541 1-1150)
T1 construct: Scc3, S. cerevisiae (UniProt SCC3_YEAST, P40541), full-length / intact protein; also called Sc Scc3; intact Scc3 protein; source: E. coli BL21(DE3) RIPL, purified (Talon beads, Superdex 200)
T1 sequence (looked up): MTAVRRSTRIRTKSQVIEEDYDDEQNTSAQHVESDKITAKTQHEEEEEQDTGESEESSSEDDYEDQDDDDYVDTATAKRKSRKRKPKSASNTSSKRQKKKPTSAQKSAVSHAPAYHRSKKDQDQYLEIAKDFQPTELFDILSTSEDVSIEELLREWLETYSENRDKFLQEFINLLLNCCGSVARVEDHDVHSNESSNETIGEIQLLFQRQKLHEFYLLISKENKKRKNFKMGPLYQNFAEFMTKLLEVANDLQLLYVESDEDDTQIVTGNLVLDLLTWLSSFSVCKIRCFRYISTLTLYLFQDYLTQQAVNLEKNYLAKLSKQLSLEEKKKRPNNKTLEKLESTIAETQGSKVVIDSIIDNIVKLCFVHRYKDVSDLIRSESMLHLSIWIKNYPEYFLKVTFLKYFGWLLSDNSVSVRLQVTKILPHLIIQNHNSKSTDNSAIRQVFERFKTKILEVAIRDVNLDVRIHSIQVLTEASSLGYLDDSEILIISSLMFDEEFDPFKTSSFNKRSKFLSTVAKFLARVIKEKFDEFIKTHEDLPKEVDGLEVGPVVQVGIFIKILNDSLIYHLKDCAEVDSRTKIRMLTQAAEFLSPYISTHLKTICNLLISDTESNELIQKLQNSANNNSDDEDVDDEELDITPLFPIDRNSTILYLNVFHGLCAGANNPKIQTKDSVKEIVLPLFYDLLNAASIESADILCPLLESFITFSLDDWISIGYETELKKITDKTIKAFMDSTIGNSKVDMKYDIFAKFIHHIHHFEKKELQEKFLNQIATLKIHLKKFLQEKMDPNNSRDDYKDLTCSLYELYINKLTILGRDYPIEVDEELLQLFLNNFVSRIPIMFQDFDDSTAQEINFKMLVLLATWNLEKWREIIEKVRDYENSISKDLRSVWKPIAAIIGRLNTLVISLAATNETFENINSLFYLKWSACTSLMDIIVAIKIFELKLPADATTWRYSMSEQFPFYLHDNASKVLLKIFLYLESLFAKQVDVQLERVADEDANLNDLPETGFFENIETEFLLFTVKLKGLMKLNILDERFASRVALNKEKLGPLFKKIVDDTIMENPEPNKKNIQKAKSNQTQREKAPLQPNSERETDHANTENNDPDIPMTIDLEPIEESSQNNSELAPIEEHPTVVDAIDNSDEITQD
Test: pull-down; two differently tagged versions of Scc1 (259–451) in the presence of intact Scc3 protein; 5 μM of each in TAP buffer, resin 2 h at 4 °C (Fig. 2-fig^1C)
Settings: both partners purified

binding result: binds
B1: S. cerevisiae Scc1 (259–451), two differently tagged versions (domain or fragment, UniProt Q12158 259-451, looked up)
chain: DDDNSVEQGRRLGESIMSEEPTDFGFDLDIEKEAPAGNIDTITDAMTESQPKQTGTRRNSKLLNTKSIQIDEETENSESIASSNTYKEERSNNLLTPQPTNFTTKRLWSEITESMSYLPDPILKNFLSYESLKKRKIHNGREGSIEEPELNVSLNLTDDVISNAGTNDNSFNELTDNMSDFVPIDAGLNEAPF
notes: source: E. coli BL21(DE3) RIPL, purified (Talon beads, Superdex 200)
